{"source": "the DeepSol protein solubility set"}
{"assay": "soluble on expression in E. coli; label from the status in PepcDB or PDB records"}
{"sequence": "MGSDKIHHHHHHMVSIRKSLLQFVFAGSYMKRWNDKLRPVELLEVDKQAHKMIVAWLLYQQNSDDLDDTSRLRLGSDIIEGGIFDYFYRLVITDIKPPVFYRIKDNAQHYAQLSAWVLDELEPLVQPLGEDFWGRMRGWVQRPEKNSRADRILDAAHLFASNWEFRLIESLNRFDDEIEDIGASFDAKLAGFDDLKGMDSLRHATGAVGRFAALCGQLRFQKRWSQTPRIPETSVLGHMFLVACYSYFFSLAVNACGARRQNNFFIGLFHDLPELLTRDIISPVKKSVEELDAVIKEYEEAELRRKVLNPLEEEGFGGIAARLSYYLGLEVGSEFTEAVVDNGNVLAVDFELLQSRYNHDRFDPRDGRMLKTCDTLAAFIEAYTAVRNGISSDQLQAALWRLRDKNRRTVIGPVHVGALFADFD", "soluble on expression in E. coli": "not soluble"}
{"sequence": "MGSDKIHHHHHHMVYTTPWNRKIEFGRTMVMGIINVTPDSFFADSRKQSVLEAVETAKKMIEEGADIIDVGGMSTRPGSDPVDEEEELNRVIPVIRAIRSITDVPISVDTYRWRVALKALEAGADIVNDISGYQFEPDIVRVVSENNVPYVLMHIKGTPKTMQENPHYEDVVKEIKEYFTEKIEYLKEKGVNQIVLDPGIGFGKRYEDNLEILRRIDEFKELKLPILIGASRKSFIGITLGNVPPEERLEGTLAVTAYCTMKGVDIIRVHDVLPNKRVIRMMEAILWQRL", "soluble on expression in E. coli": "not soluble"}
{"sequence": "MGSDKIHHHHHHMVYVNANVDTKVDNRKDNCDNTNTYSHTVDRKDNFDNTTTNTKTVNRNDNCNNQEEGDVNMYRRNDNCNNREATNSRSANYSIHNQGMINCYNGIAIDNRAFNSSGANTMAGTEFLRAFLDAPMSVMPGSRKNAIMDRQEGSTQPAIRYNNR", "soluble on expression in E. coli": "not soluble"}
{"sequence": "MGSDKIHHHHHHMWELDVSPTRFKAHFSLDPGVACLNHGMLGACPISVQQRQSTLRAQLERQPAAFVLRALPALLDTARNCLAEVIGADPQDLLLLPNVTTAMSAVLRSRIFAPGDQILTTDHAYLSCRNLLEFIARSTGAEVMVAPVKVPVQHPDAIVDAVLERVTARTRLAVLDHVTSPTAIVFPIARLVERLAALGIDTLVDGAHAPGMLPLDVIAIGAAYYAGDCHKWLCTPRGAGFLHVRRDRQDGLHPPVISRGYGDATPGRPRLHLEFDWLGTADPTALLCIPAAIDFLATLLPGGLPAVFARNHALVTQAAARLAQALPLARLAPDAMVGSMVAFQLPDAASDAPDDAAASLQRWLYDAHRIDVAVTPWPHRTNRTLRISAQVYNAAEDFMQLDAPLAQCLAPDDRQSNNQCRTTEVMR", "soluble on expression in E. coli": "not soluble"}
{"sequence": "MGSDKIHHHHHHMWFRNLLIYRLAGEVITSDELEAYLAKQTLQGCLGLEPQSRGWVPPGIAEADLVYSYGQQMLIALGTEKKLLPASVVNQLAKVRAQEMESHQGYAPGRKQMKEIKEAAYRELLSRAFAIRQRSHAWIDPVGGWFIVEGASASKADALIEAFIKSTGIGLKRIRTTMAPTSAMTAWLSGDDPPAIFSVDSDSIFRSREDKKVSVSYIRQSPDPQEITRHVRTGKEVIRLAMTWRDKISFILDENLQLKRLTLLDIDREPAETAEEQFDSNFFLMTEELRQLLPDLVEILGGMTAD", "soluble on expression in E. coli": "not soluble"}
{"sequence": "MGSDKIHHHHHHMYAQTPQDMTRALFEAQLVELQRARAIRKKYHTDVVLGLTSAIRVLLIDMPSLYDKIKLLDYLHIVVEEPRFRSSHEGVKFHAYTATLPPDRTPDRTLQRDRTSRQTAATPETPHTQTARSHKKVTRDTTPFAAYENSKYAPIFVEPHIFTVHPLLLWVQMAAYLRLEELVVLGDAMMRRSFYRVHVSPADFATLLNELPTTFPHRKKCDKAVKLLAENTDSCMETRLRFRMLRAGYGPFVINYRLPLNTADKKQAFLDIAIPNLKIAIEYSGKFHAQNWESDEARRTALSSAGWQILSVNAETLSNSGKFKDFLIQLSMTIARQQTILQRNQQM", "soluble on expression in E. coli": "not soluble"}
{"sequence": "MGSDKIHHHHHHMYLLVYGSLRYGFELNHLVAKSRFVGLGYIEGYEMYDLGNYPGVIKGDGIVWGEVYEIDENLIKLLDEVEDYKGSPDDLYVREKTRVYFDQKRKYYLDNVYFYRYNKEIVKNMEKIEDGDYSAWSGMPIIVNYFAYAENTNERILHQRGVDMILSETPAYTKGYRLIFNIPCKYGYCANLIEDESGIICGYLQKVFLHTLNSLDKAEQHLIKYIREVVKVYDRNGKEYFAYAYVSSYKENRKKPSEEYVKIIREGLMRGWGNECVSTGLYDEPGIS", "soluble on expression in E. coli": "not soluble"}
{"sequence": "MGSDKIHHHHHHMYTDADRSREVVPEKDGHDKKWRDEFGRDYGRIIHSASFRRQQGKTQVFPSRESDFFRNRLTHSLEVAQIAQGIAERINYDYDKDLGGKIDPRLCATAGLVHDIGHPPFGHNGESALDKAMQRYGGFEGNAQTLRILTRLEKKLRYAEPLAGDDRAGLNLCHRTIAATLKYDNEIPAIRKAADGFVKGYYGSEKIIVDRVKASVLNGYVLGAEEKFCTIECSIMDLADDIAYSVYDLEDCFKVGFLSPAEMLASDDALLSAVAKRASKPMKRTVTINEIQAVFMEIFSEIIEQPAEDADSPLDGIVIEDDIAQQAKRDESLLTFAEAYRTSKVMSEDGYKRTEFSSELVHQFISGVELKAHKECPSLSQIYLPEKLMLRKEVLKQYTFVAAIYAPRVKLGEYRGYDLVTDIFKALMGDRGDLLMPADVRGRIRKAPNVSVKAREVCDFVAGMTDRYAMEFWARLNSDAAESMFKPI", "soluble on expression in E. coli": "not soluble"}
{"sequence": "MGSDKIHHHHHHMYTMFYTSKTALSANQSKLDIISNNIANSDSTGYKKINMEYSDLVDEVLNRPSYPTNGNDISTGTGAKATAPMRNYEQGALAPTDSKSNLAIDGEGFFRVIRKDGTYAYTRNGGFNVDALGKIVDDNGNILDVQFDAGYNYNNTNIDSTNLTVSRNGELFVDNKKIGKINLYQPIGTQNFISEGDSLFVATDAAQIKQVEKVDIVQGYRERSNVSLQEEFVDLIATQRAFQMNSKGIKTADEMWQIANNLRAK", "soluble on expression in E. coli": "not soluble"}
{"sequence": "MGSDKIHHHHHHMYTQDNVISNNKRLSSFQLSKMHTFEVAARHCSFSLAAEELSMTPSAISHRINALESELGILLFKRSHRKIELTKEGERIYIAVKSSFSSLNQEILEVKSNEISGELTVYSRPSFAQCWLVPRIAGFQKQYPAISLNILTGNENINFHGHGIDVAIYFDEKQPSKLYCQDIMTETIVPVCSPEYAEEFDLIGKINNLSQCTLLHDNQAWGYDSNTDEWALWANNFNINCLASSASIRFDRSDLAVIAAMNNAGVAMGRESFISNQIKRGELIKPFIDKKILCPQRYYVATLPNNKNTKIELFIEWLKNEVQNEGGESIV", "soluble on expression in E. coli": "not soluble"}
{"sequence": "MGSDKIHHHHHHMYTREELMEIVSERVKKCTACPLHLNRTNVVVGEGNLDTRIVFVGEGPGEEEDKTGRPFVGRAGMLLTELLRESGIRREDVYICNVVKCRPPNNRTPTPEEQAACGHFLLAQIEIINPDVIVALGATALSFFVDGKKVSITKVRGNPIDWLGGKKVIPTFHPSYLLRNRSNELRRIVLEDIEKAKSFIKKEG", "soluble on expression in E. coli": "soluble"}
{"sequence": "MGSDKIHHHHHHNVYSLPANGGRLIGELQTHVVEKGDYFKTIADKYNIGILELMETNPGVDPFLPTPGTQLVIPTQMLLPDVPRKGIVINLPELRLYYFPKNGREVHVFPVGIGRIGRETPEMTTKIKARIPNPSWTPPASLRAEHLRERGEVLPPVVPAGPDNPLGKYAMQLSYGDGSYLIHGTNKDFGIGMRVSAGCIRLNPDDIEWLFHQAKYGDSVRVINQTVKIATEPDGRQIIEVHSPLSKTEDQPREKVISLSSKVVKFISQESVDNTKANDALLTQNGIPMVISHPPLTAAQDLEITP", "soluble on expression in E. coli": "not soluble"}
{"sequence": "MGSDKIHHHHHHNYENINSNPYEAPDLSADGYALGSAMNNLAGCVVSPDVNTAQFTDCLLGGPLGGYFADSNAGFTETISNFNPKDDWSRVFLKSDKIIPTLYSNLTQVKLVSQNTNDPVPYAIAQVIKVAAMHRVTDAFGPIPYSQIGANGEIATPYDSQEVTYNTFFDELNAAIATLNENSNEQLVPTADYIYKGDVKKWIRFANSLKLRLAIRIAYANPVKAQQMAEEAVNPANGGVIESNADNATWNYFETSQNPIYVATRYNQVQTSDHGGVPCLTGGDTHAAADIICYMNGYKDNRREKFFTKSEWAGQDYVGMRRGIVIPELKTTGHKYSGVNIAPTSPLYWMNAAEVAFLRAEGQAVFNFSMGGTAESFYNQGIRLSFEQWGADGVEDYLKDDVNKPTAYTDPAGTNTYQNALSNITIKWNDSADKEEKQERIIVQKWIANWQLGNEAWADFRRTGYPKLIPVKENKSGGVVDSEKGARRMPYPLDEFVSNKANVEYAIANYLHGADNMATDVWWASKK", "soluble on expression in E. coli": "not soluble"}
{"sequence": "MGSDKIHHHHHHPSLTCVMEGKDIEDWSCCPTPWTSFQSSCYFISTGMQSWTKSQKNCSVMGADLVVINTREEQDFIIQNLKRNSSYFLGLSDPGGRRHWQWVDQTPYNENVTFWHSGEPNNLDERCAIINFRSSEEWGWNDIHCHVPQKSICKMKKIYI", "soluble on expression in E. coli": "not soluble"}
{"sequence": "MGSDKIHHHHHHQTIDETAIIARAQAIATRINEFLATRERNLLAKILALGGVQQAEIFEIQVKARLHPADVERVLAVLNHPAITVTKTSERTQYDTYFIFANGERIRIREDHRTDPGARPQPKYTLTLMAEARRFDHPKAMMLSRARYTAPADHTVRFYREYFQPDRIEELEKQRRRWRILYRDHDFAINLDTLIGQADRGPFLEIKSRTWSRRDAERRAELISELLELIGISDDALVLQEYVELVA", "soluble on expression in E. coli": "not soluble"}
{"sequence": "MGSDKIHHHHHHRGDKPVVWNHQDRRFEVIQQKKQRQRLDSYRRIVIDTTAPVTIRQGDTRQVTLHNFSSANNRLRARVSQGTLTVTGGSTTMNYVLGFGSDGGGINFSSNGDKRGVVITVPKTQRLDSIISKREGGELSLKKMTVKQISVKSTDDVSFNDVRVTKTLAVDTTAGDISGKQVKADRVDLTAEEGDVSLTQSHFKAVNNRVISGDGDVRLATTQLGGGHVVASDGDIQLHDNRLMGTLKATATDGDISARIAPAAGAKVTTTDSDDEIHVVGHSRSSGYWLRRAASAQYRLSTDDGDITVTQ", "soluble on expression in E. coli": "not soluble"}
{"sequence": "MGSDKIHHHHHHRTKDQYYELRDFALGTSVRIVVSSQKINPRTIAEAILEDMKRITYKFSFTDERSVVKKINDHPNEWVEVDEETYSLIKAACAFAELTDGAFDPTVGRLLELWGFTGNYENLRVPSREEIEEALKHTGYKNVLFDDKNMRVMVKNGVKIDLGGIAKGYALDRARQIALSFDENATGFVEAGGDVRIIGPKFGKYPWVIGVKDPRGDDVIDYIYLKSGAVATSGDYERYFVVDGVRYHHILDPSTGYPARGVWSVTIIAEDATTADALSTAGFVMAGKDWRKVVLDFPNMGAHLLIVLEGGAIERSETFKLFERE", "soluble on expression in E. coli": "soluble"}
{"sequence": "MGSDKIHHHHHHSAGPIHPASLDIDNGNGTNVFIAYEWVDYDYKTYTENGLALDEAWGHLYMAIVAVAGVHVTGYVHNDIDRGNFVINSDGILKLTDFGMSSSKDASCSGKALFFPPETFQPGFFQRKRDASALARVQARDLFQVGNTMLEAILGKEGEIYQAERYGLKLAMVKKKPDFKQDLKVVIQDEKKFRKSFGKIGTKKIEDKLCVDPSRQAEVVKNLARWGLQNSLSL", "soluble on expression in E. coli": "not soluble"}
{"sequence": "MGSDKIHHHHHHSCLDDDDSSSDSLVISTINLISPDSKDFYFTLDDGKTMFPSNGNGWISDKNKDGQRAFVIFKELEEPVKGYDYNIQVREIKEILTKEIVTMGEGENTEEKIGDDKINSTYMWITQDKKYLTIEFQYYGTHSEDKKHFLNLVINNKEAEPAADDANDEYIDLEFRHNDEGDTADRLGEGYISFKLDKIQDQMKGKKGLRIRVKTLYNGEKFYEVKFPSSN", "soluble on expression in E. coli": "not soluble"}
